Data from the supplement of paper PMC12764529.
± gives the half width of the 95% confidence interval.

Columns and labels:
[1] = folding stability dG unfold from trypsin proteolysis; higher = more stable
Outline: (§1)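 Digests were run with trypsin and chymotrypsin at 11 concentrations in threefold dilutions, plus a no-protease condition, on designed mini-proteins in a PA-tagged cDNA display construct. The mini-proteins were under 80 residues, had no cysteine, and were kept only when AlphaFold2 dimer inter-PAE was above 15. After sequencing, Bayesian fitting of the counts gave K50, from which unfolding free energy was derived against a sequence-predicted unfolded-state K50 and a shared folded-state K50, per protease or combined.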

[2] = folding stability dG unfold from chymotrypsin proteolysis; higher = more stable
Outline: as §1

[3] = folding stability dG unfold (combined trypsin and chymotrypsin); higher = more stable
Outline: as §1

Row | Sequence | folding stability dG unfold [1] | folding stability dG unfold [2] | folding stability dG unfold [3]
1 | SAGGSAGGSAGGDLVITEVRVEFDPKDGTLRVTARFELPNTGETVEVTLEFEIPYPDGASAGGSAGGSAGGS [r10_296_TrMRF] | 2.99 ± 0.35 kcal/mol | 2.86 ± 0.15 kcal/mol | 2.85 ± 0.32 kcal/mol
2 | SAKEIASGTFLLDNGATLTVTSIKYDPETGKVSIPVELTVYVPKIDPNDPNKPTIEPFTFKITFTFKVDSAG [r14_888_TrMRF] | 2.51 ± 0.073 kcal/mol | 3.78 ± 0.026 kcal/mol | 3.34 ± 0.087 kcal/mol
3 | SAGGSAGGSAGGMPIPVTITVSDPATGTTKVVKTVLVTSPEKLEEVISKLPEGKKYTVVESAGGSAGGSAGG [r7_307_JUSTAS] | -0.415 ± 0.098 kcal/mol | -0.224 ± 0.22 kcal/mol | -0.393 ± 0.29 kcal/mol
4 | SAGGSAGGSGKPLLLVRLKIRNKETGEEETVVLEADSLDEALARLPPGAEIVSIEVVRLDLPPSAGGSAGGS [r12_208_TrROS_Hall] | 4.34 ± 0.16 kcal/mol | 5.38 ± 0.075 kcal/mol | 5.34 ± 0.13 kcal/mol
5 | SMKIVEVEVFEDPETGKLVVIVKLDGEEVVEVEEGEKVEIEVEPGDTLLVFVVDAETGEIKEEKEIKVEESA [r9_209_TrROS_Hall] | 0.541 ± 0.12 kcal/mol | 1.2 ± 0.12 kcal/mol | 1.11 ± 0.16 kcal/mol
6 | SHPDEFPKELVDAIAKAFPNIKRIEVEPLPDKFVLLKVEFIDGDGEGRVAFAVPTPDGETALHEYLVRNPSA [r9_678_TrMRF] | 1 ± 0.013 kcal/mol | 1.23 ± 0.062 kcal/mol | 1.14 ± 0.056 kcal/mol
7 | SAGGSAGGSAGGASLKVVEREVEYYDPETGETVRVKALVTVDPNSDKEILDPEEKEKLLSSAGGSAGGSAGG [r7_557_JUSTAS] | 1.02 ± 0.034 kcal/mol | 0.795 ± 0.016 kcal/mol | 0.907 ± 0.087 kcal/mol
8 | SAGGSAGGSKTIKIEIEKMSEEELKNLTAEEIAKLLGVKEVKVTKEKIEITLTEEELKKLEKKSAGGSAGGS [r12_178_TrROS_Hall] | 0.257 ± 0.099 kcal/mol | 1.24 ± 0.022 kcal/mol | 0.856 ± 0.14 kcal/mol
9 | SAGGMKIYYISKGKKYYVKVILPNNEIIEIETESLEEAIKKAKEELIKKYPNIPPENFKIDYIIPLPESAGG [r13_887_TrMRF] | 3.81 ± 0.2 kcal/mol | 4.34 ± 0.078 kcal/mol | 4.18 ± 0.2 kcal/mol
10 | SAGGSLPLPPGATVETTEVDPANPDRTYKTTTTFTPVPGNTLLATPVVTDPETGTTTTTTTTVPLALGSAGG [r13_268_JUSTAS] | 0.321 ± 0.054 kcal/mol | 0.809 ± 0.15 kcal/mol | 0.64 ± 0.13 kcal/mol
11 | SAGGSAGGKKKKPPPLVVVKIEITNPNGEKKELTLVFPSLEDAKAAIEALLPPGYTAKVEIKPLSAGGSAGG [r6_289_TrROS_Hall] | 3.16 ± 0.35 kcal/mol | 3.69 ± 0.37 kcal/mol | –
12 | SAGGSAGGSAGEEEVEPPPEVVVRVRFFDKDGKEVLEVEMSLDELRALAEAGLVEVELEPSAGGSAGGSAGG [r11_159_TrROS_Hall] | 2.97 ± 0.25 kcal/mol | 2.63 ± 0.33 kcal/mol | –
13 | SADKIKIPPGFQIFGPNGQPIRPGTEVEVEDIEPHPGGGEFMFEVKIKSPDDGEEHNWPIMIRFPPAGKSAG [r14_258_TrROS] | 0.755 ± 0.13 kcal/mol | -0.395 ± 0.24 kcal/mol | –
14 | SAGGSAGGSAGGGKYRLKLRFTFTNAAGGSSELELEVEIEIPPPPLIAPDADGHWYSLTSAGGSAGGSAGGS [r10_330_TrMRF] | 3.86 ± 0.27 kcal/mol | 5.31 ± 0.65 kcal/mol | –
15 | SAGGKRKIMIPMDEMEEKFGIPPNQTVEELAKYINPNYKIEVDNVRYEKDENGKERYWVKVEIEPPKDSAGG [r13_723_TrROS] | 0.739 ± 0.25 kcal/mol | -0.136 ± 0.61 kcal/mol | –
16 | SAGGDPAPLEVDIEMDPDNGRIRIEIRAGGSKVIYEYEIPLDGYEFKVKIIVVDGKIVIEIEFEMPDSAGGS [r16_631_TrROS] | 4.27 ± 0.55 kcal/mol | 3.81 ± 0.27 kcal/mol | –
17 | SAGGSAGGSAGGSPPTAKELVKELREKFPPGYPITIKHPDKTIRIMMNPGPGKFQVEIYSAGGSAGGSAGGS [r4_150_TrROS] | -0.236 ± 0.37 kcal/mol | – | < -1 kcal/mol
18 | SAGGSAGGSGMEEAIEKAKKEILEKNPDLPPNAVVNEPILVKDPSTDEEYVIPVTFTIPENNLSAGGSAGGS [r12_591_JUSTAS] | -0.137 ± 0.063 kcal/mol | – | -0.61 ± 0.67 kcal/mol
19 | SAGGEPIKIKIDSVQEQPNPDGGPYLYVKITYPDGGRQTGMFDSPEDFKSQLEGEPGFKKIEIEPIRSAGGS [r16_757_TrROS] | -0.839 ± 0.52 kcal/mol | – | < -1 kcal/mol
20 | SAGGSAGGSSDTRTIPIPIDGYPVRISIDMNGSQTIEFPNPENKDDLKDLIPPGYNITEIEPWSAGGSAGGS [r12_9_TrROS] | -0.999 ± 0.36 kcal/mol | – | < -1 kcal/mol
21 | SAGGSAGGSAGGDAILIEVESPEDAVEAARELAEKEFGIDPENFPINVVVDEPDGKALIASAGGSAGGSAGG [r7_387_TrMRF] | 0.743 ± 0.019 kcal/mol | – | -0.404 ± 0.25 kcal/mol
22 | SAGGSAGGSMMKVRVYARNKDGEEVPVEEIEIPPEVETPEEALKLAEELAKKEGVEEVRVEIESAGGSAGGS [r12_569_TrROS_Hall] | -0.13 ± 0.19 kcal/mol | – | -0.609 ± 0.38 kcal/mol
23 | SAGGSAMPPGQPWKIKRTIPFKDPNGWKITIYRMPDDGHVWVRWEPPNGGEREVWMPAEEAEDALKSAGGSA [r15_2_TrROS] | 0.902 ± 0.23 kcal/mol | – | 0.307 ± 0.58 kcal/mol
24 | SADFKPEGPSNNALVWKNPNSGKMFMIYPSDDNIEVQEIEYDPGNNKPEPETERVPLPEDDRDDLKDLLSAG [r14_245_TrROS] | -0.663 ± 0.14 kcal/mol | – | < -1 kcal/mol

Row | Sequence | folding stability dG unfold [1] | folding stability dG unfold [2] | folding stability dG unfold [3]
25 | SAGGWRLNINFPPDNIEKIVEKLRDEFPGWEIKPDKIEYNPDDGQYTIPIEVKSKNPRAAEKIQDAIQSAGG [r13_539_TrROS] | 0.154 ± 0.14 kcal/mol | – | -0.955 ± 0.39 kcal/mol
26 | SAGGSAGGSAGPGEPVPIRLKIYGPNGQPHTHPFPVKNPEEFKDNLRFPVPNGWAVEIEYSAGGSAGGSAGG [r11_671_TrROS] | -0.719 ± 0.37 kcal/mol | – | < -1 kcal/mol
27 | SAGSMPVESTSERKLEKDGVATVTTTSYPDASPGGTDTVTVTLHPGESESATTTYTQPPGAPPLTVSLESAG [r5_47_JUSTAS] | -1.05 ± 0.27 kcal/mol | – | < -1 kcal/mol
28 | SAGGNWRPVERPIPIEPGMPPEEFIDEIADELPPGWRIDKPEPHPDNNYFKITVYDPNDGNQVEILFSAGGS [r16_250_TrROS] | 0.363 ± 0.15 kcal/mol | – | 0.122 ± 0.25 kcal/mol
29 | SAGGSAGGSAGGKVRVETDPERGYYKVKIRNPNNGRKIKVPVPMDDPKKAKKQAKELAKSAGGSAGGSAGGS [r10_1117_TrROS] | -0.863 ± 0.5 kcal/mol | – | < -1 kcal/mol
30 | SAGGSMTLTEVSYEGDKVVTTTTTFTPGAPALTSSTTTTPIPPVPLGPRPVIFFEPVSEMRPLALVSAGGSA [r2_332_JUSTAS] | 0.628 ± 0.051 kcal/mol | – | 0.034 ± 0.17 kcal/mol
31 | SAGGSAGGSAGGSMKVEKFTEIITTPDGKPELIVEKEKTTTPNGGTKTTVTKIIPAKLLSAGGSAGGSAGGS [r4_117_JUSTAS] | -0.306 ± 0.38 kcal/mol | – | < -1 kcal/mol
32 | SAGGSAGGSAGGSMRYDIVEDPETGTVTINRYVVYPPGIEKKTEGEIVPASTVPPGDLLGSAGGSAGGSAGG [r7_455_JUSTAS] | -0.0505 ± 0.29 kcal/mol | – | < -1 kcal/mol
33 | SAGGSAGGSAGGMTKISVNIVIYDPKNNTTKIIPITMSESEIKKVKEELVPKNMSAKILSAGGSAGGSAGGS [r10_397_JUSTAS] | 0.847 ± 0.12 kcal/mol | – | 0.191 ± 0.24 kcal/mol
34 | SAGKITIEYDKETNTVTVTIEIEIEVINEDGSIEKKKITITVKVKVDKKTNKVELLSLDEILKKLEELLSAG [r5_239_TrROS_Hall] | 2.92 ± 0.2 kcal/mol | – | 3.81 ± 0.36 kcal/mol
35 | SAGGSAGGSTPPLTTETEAVIEIEGGLYSVKVTQLPPDETLMTIPANGMIIRETPDKIEIRPESAGGSAGGS [r12_737_JUSTAS] | -0.374 ± 0.28 kcal/mol | – | < -1 kcal/mol
36 | SAGGSALPPDQRLVVIDLGREPGVTPDEPVEVPEELIEKIKKENPNVKLVEVKHEGDKVTLYIAIKSAGGSA [r2_383_JUSTAS] | -0.0124 ± 0.48 kcal/mol | – | < -1 kcal/mol
37 | SAGGSENPNDPRPVVPVGVAVVDIEIHGHPDMTEEERLAAVEEAVEALEGLEVEHPDGHPTILLAGSAGGSA [r2_149_TrMRF] | -0.161 ± 0.071 kcal/mol | – | < -1 kcal/mol
38 | SAGGSAGGSAESIDAKVTPVALPSGPRYLIEVNNPAAPEIPKSVVEEELAKKYPKERVELLSAGGSAGGSAG [r3_226_JUSTAS] | -0.516 ± 0.1 kcal/mol | – | < -1 kcal/mol
39 | SAGGSAGGSAGGGMTTVTIEVPPELSEEEVRRAAAELVAAGRPVPVTVERLPEDRVVVVTSAGGSAGGSAGG [r7_283_JUSTAS] | 0.68 ± 0.021 kcal/mol | – | -0.0348 ± 0.082 kcal/mol
40 | SAGGSAGGSMVTTSIDPSGTAKITVTDGGGVPVSTATIPVDPNAILTYDPNNSSISTFSPVSSSAGGSAGGS [r12_1002_JUSTAS] | 0.519 ± 0.032 kcal/mol | – | -0.442 ± 0.24 kcal/mol
41 | SAGKFKITSIKPLYVTTPADAPPVKKPYLVIELDAEDPEKARELAEKLTGAPVLVVEDPETGTATIVIDSAG [r5_907_TrMRF] | 0.121 ± 0.082 kcal/mol | – | -0.357 ± 0.17 kcal/mol
42 | SAGGSLPADAEVTEVVEDPSKGVVTVKVTVRDSEGKVVEERTVVTPVEPVPPLSPENLKKNLLLTLLSAGGS [r16_697_JUSTAS] | 0.249 ± 0.12 kcal/mol | – | -0.741 ± 0.94 kcal/mol
43 | SAGGSAGGSAGGKRITIMFNTPEQIEELAENLGFDDIEVEPFPNEDGRPYVQVTIRLPPSAGGSAGGSAGGS [r10_494_TrROS] | -0.703 ± 0.15 kcal/mol | – | < -1 kcal/mol
44 | SAGGSAGGSAMKPERIELPGNEVAVIEKVPEAGVYIVTFKKPEGDEPLGEKIFKPDEIDLKLESAGGSAGGS [r20_190_JUSTAS] | -1.17 ± 0.24 kcal/mol | – | < -1 kcal/mol
45 | SAGGSAGGSAGPVISKSEVESTEIIFSYNNKHEITVKKVKKTITTTIPPVKLKPDGTPILSAGGSAGGSAGG [r11_558_JUSTAS] | -0.803 ± 0.51 kcal/mol | – | -0.349 ± 0.54 kcal/mol
46 | SAGGSAGGSSPEIPLPPEIAEEIEVPGSGTTVLLHPSTGLVLYKPPPEELAVGRYDPSTGVLESAGGSAGGS [r12_420_JUSTAS] | 0.985 ± 0.051 kcal/mol | – | 0.475 ± 0.15 kcal/mol
47 | SEEIAKKIADELKKAGYEVVKVEVTYDKETKKVTIKIVVKDKKTNEYYKITIKLNEETGEIVEVKIEKLPSA [r9_814_TrROS_Hall] | 2.96 ± 0.42 kcal/mol | 4.14 ± 0.41 kcal/mol | –
